Measurements: article PMC8044712 (STAR Protocols, 2021)

Target: T1, ΔN100 y-mtRNAP (yeast mitochondrial RNA polymerase lacking the N-terminal 100 residues) (S. cerevisiae, UniProt P13433 101-1351)
T1 sequence (looked up): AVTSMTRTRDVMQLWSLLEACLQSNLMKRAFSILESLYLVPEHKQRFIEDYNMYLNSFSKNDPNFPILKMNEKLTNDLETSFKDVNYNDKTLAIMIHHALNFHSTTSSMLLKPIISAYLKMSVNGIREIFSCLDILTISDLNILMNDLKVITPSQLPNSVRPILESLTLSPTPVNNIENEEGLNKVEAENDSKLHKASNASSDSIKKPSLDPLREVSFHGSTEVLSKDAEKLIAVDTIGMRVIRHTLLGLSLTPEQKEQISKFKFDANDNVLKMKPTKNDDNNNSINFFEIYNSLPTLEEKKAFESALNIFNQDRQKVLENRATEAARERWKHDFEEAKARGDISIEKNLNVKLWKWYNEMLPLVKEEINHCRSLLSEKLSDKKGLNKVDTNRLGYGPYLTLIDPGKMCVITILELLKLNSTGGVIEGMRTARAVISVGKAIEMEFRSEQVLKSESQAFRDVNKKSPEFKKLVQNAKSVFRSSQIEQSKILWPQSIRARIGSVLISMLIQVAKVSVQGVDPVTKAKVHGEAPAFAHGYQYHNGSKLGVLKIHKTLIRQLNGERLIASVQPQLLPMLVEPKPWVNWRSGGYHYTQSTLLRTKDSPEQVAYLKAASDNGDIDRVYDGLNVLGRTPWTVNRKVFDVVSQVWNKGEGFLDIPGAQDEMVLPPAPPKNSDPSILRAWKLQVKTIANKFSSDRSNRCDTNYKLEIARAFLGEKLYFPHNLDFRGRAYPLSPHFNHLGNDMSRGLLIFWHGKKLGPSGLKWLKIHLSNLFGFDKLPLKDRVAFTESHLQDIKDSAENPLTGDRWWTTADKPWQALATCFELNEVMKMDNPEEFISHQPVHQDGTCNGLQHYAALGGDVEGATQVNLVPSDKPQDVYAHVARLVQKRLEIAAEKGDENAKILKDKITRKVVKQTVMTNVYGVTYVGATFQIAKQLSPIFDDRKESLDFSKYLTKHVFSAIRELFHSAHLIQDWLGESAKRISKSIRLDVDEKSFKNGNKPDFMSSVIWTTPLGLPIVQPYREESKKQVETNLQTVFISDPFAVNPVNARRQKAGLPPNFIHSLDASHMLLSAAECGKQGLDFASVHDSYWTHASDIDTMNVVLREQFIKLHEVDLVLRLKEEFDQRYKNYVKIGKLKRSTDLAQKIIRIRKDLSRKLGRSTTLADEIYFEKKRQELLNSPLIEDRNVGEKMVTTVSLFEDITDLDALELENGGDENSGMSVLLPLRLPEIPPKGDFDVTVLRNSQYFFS
Assay: cryo-EM structure

- binding result: binds
B1: His-6 tagged MTF1 from S. cerevisiae (mitochondrial transcription initiation factor MTF1) (natural protein)
chain: SVPIPGIKDISKLKFFYGFKYLWNPTVYNKIFDKLDLTKTYKHPEELKVLDLYPGVGIQSAIFYNKYCPRQYSLLEKRSSLYKFLNAKFEGSPLQILKRDPYDWSTYSNLIDEERIFVPEVQSSDHINDKFLTVANVTGEGSEGLIMQWLSCIGNKNWLYRFGKVKMLLWMPSTTARKLLARPGMHSRSKCSVVREAFTDTKLIAISDANELKGFDSQCIEEWDPILFSAAEIWPTKGKPIALVEMDPIDFDFDVDNWDYVTRHLMILKRTPLNTVMDSLGHGGQQYFNSRITDKDLLKKCPIDLTNDEFIYLTKLFMEWPFKPDILMDFVDMYQTEHSG
